In patent publication US20110300138A1 (published 2011):
Blank lines part the entries; values can stand above or below the molecule they belong to.

Assays:
[1] = target: TSHR (full length) coated on tubes (human) (UniProt P16473); test: inhibition of 125I-K1-18 Fab (competitor) binding to TSHR coated tubes; test sample 10 µg/mL in HBD serum
[2] = target: TSHR (thyroid stimulating hormone receptor), full length human (human) (UniProt P16473); test: competitor ^125I-K1-70 IgG, TSHR coated tubes; 0.1 µg/mL in HBD
[3] = target: TSHR (thyroid stimulating hormone receptor), full length human (human) (UniProt P16473); test: competitor ^125I-K1-70 IgG, TSHR coated tubes; 10 µg/mL in assay buffer
[4] = target: TSH receptor (TSHR), full length human, coated on tubes (human) (UniProt P16473); test: inhibition of 125I-TSH binding to TSHR coated tubes; 100 µg/mL, diluted in HBD serum pool
[5] = target: wild type TSHR (human TSH receptor) expressed in CHO cells (human) (UniProt P16473); test: cell-based or functional assay
[6] = target: TSHR with Thr257 mutated to Ala, expressed in CHO cells (human) (UniProt P16473); test: cell-based or functional assay
[7] = target: TSHR (full length) coated on tubes (human) (UniProt P16473); test: inhibition of 125I-K1-18 Fab (competitor) binding to TSHR coated tubes; negative control 100 µg/mL in assay buffer
[8] = target: thyroid stimulating hormone receptor (TSHR), full length human TSHR (human) (UniProt P16473); test: TSH-biotin competition ELISA, TSHR coated wells; negative control, 100 µg/mL in assay buffer
[9] = target: TSH receptor (TSHR) coated on tubes (human) (UniProt P16473); test: inhibition of 125I-K1-70 IgG binding to TSHR coated tubes; negative control 1 µg/mL in HBD serum pool; duplicate determination
[10] = target: human TSH receptor (full length) coated on ELISA plate wells (human) (UniProt P16473); test: TSH-biotin binding inhibition ELISA, TSHR coated wells; 1 µg/mL in assay buffer + 100 µg/mL 5B3 IgG; negative control MAb
[11] = target: TSH receptor (TSHR) coated on tubes (human) (UniProt P16473); test: inhibition of 125I-K1-70 IgG binding to TSHR coated tubes; negative control 0.001 µg/mL in assay buffer
[12] = target: TSH receptor (TSHR) coated on tubes (human) (UniProt P16473); test: inhibition of 125I-K1-70 IgG binding to TSHR coated tubes; negative control 10 µg/mL in HBD serum pool
[13] = target: human TSH receptor (full length) coated on ELISA plate wells (human) (UniProt P16473); test: TSH-biotin binding inhibition ELISA, TSHR coated wells; 100 µg/mL in assay buffer; negative control MAb
[14] = target: TSHR (full length) coated on tubes (human) (UniProt P16473); test: inhibition of 125I-K1-18 Fab (competitor) binding to TSHR coated tubes; negative control 10 µg/mL in HBD serum
[15] = target: thyroid stimulating hormone receptor (TSHR), full length human TSHR (human) (UniProt P16473); test: TSH-biotin competition ELISA, TSHR coated wells; negative control, 1 µg/mL in HBD serum
[16] = target: TSHR with Phe130 mutated to Ala, expressed in CHO cells (human) (UniProt P16473); test: cell-based or functional assay
[17] = target: wild type TSHR expressed in CHO cells (human) (UniProt P16473); test: cell-based or functional assay
[18] = target: TSH receptor (full length human TSHR) coated on tubes (human) (UniProt P16473); test: 125I-TSH binding inhibition read against NIBSC 90/672; 30 ng/mL, in assay buffer
[19] = target: TSH receptor (TSHR) coated on tubes (human) (UniProt P16473); test: inhibition of 125I-K1-70 IgG binding to TSHR coated tubes; sample 0.003 µg/mL in HBD serum pool; duplicate determination
[20] = target: thyroid stimulating hormone receptor (TSHR), full length, coated on tubes (human) (UniProt P16473); test: inhibition of 125I-TSH binding, TSHR coated tubes; antibody 0.1 µg/mL in assay buffer; mean of duplicate
[21] = target: TSH receptor (TSHR) coated on tubes (human) (UniProt P16473); test: inhibition of 125I-K1-70 IgG binding to TSHR coated tubes; sample 0.1 µg/mL in assay buffer
[22] = target: human thyroid stimulating hormone receptor (TSHR), full length (human) (UniProt P16473); test: 125I-K1-18 Fab competition, TSHR coated tubes; 100 µg/mL in HBD
[23] = target: TSH receptor (TSHR), full length human, coated on tubes (human) (UniProt P16473); test: inhibition of 125I-K1-18 IgG (competitor) binding to TSHR coated tubes; test sample at 100 µg/mL in HBD serum pool
[24] = target: human thyroid stimulating hormone receptor (TSHR), full length (human) (UniProt P16473); test: 125I-K1-18 Fab competition, TSHR coated tubes; 0.1 µg/mL in assay buffer
[25] = target: thyroid stimulating hormone receptor (full length human TSHR) (human) (UniProt P16473); test: ELISA, inhibition of TSH-biotin binding to TSHR coated wells; 0.01 µg/mL, diluted in assay buffer
[26] = target: thyroid stimulating hormone receptor (TSHR), full length, coated on tubes (human) (UniProt P16473); test: inhibition of 125I-TSH binding, TSHR coated tubes; antibody 0.01 µg/mL in HBD serum pool
[27] = target: human thyroid stimulating hormone receptor (TSHR), full length (human) (UniProt P16473); test: 125I-K1-18 Fab competition, TSHR coated tubes; 1 µg/mL in HBD

Molecule: TSH (ligand)
- % inhibition of TSH stimulation; TSH (2) [16]: 0%
- Cyclic AMP produced; TSH 3 ng/mL [16]: 121 pmol/mL
- Cyclic AMP produced; TSH (2) [16]: 95.4 pmol/mL
- Mutated/wild type (%) of cyclic AMP produced; TSH 3 ng/mL [16]: 152%
- Mutated/wild type (%) of cyclic AMP produced; TSH (2) [16]: 107%
- % inhibition of TSH stimulation; TSH (2) [17]: 0%
- Cyclic AMP produced; TSH 3 ng/mL [17]: 79.4 pmol/mL
- Cyclic AMP produced; TSH (2) [17]: 89.1 pmol/mL

Molecule: M22 IgG (antibody)
- units/L [18]: 8.6 units/L
- units/mg [18]: 287 units/mg
- Inhibition of binding (%) [19]: 6.2%

B1: 5C9 IgG (antibody, from another filing, V domains shown)
VH: EVQLVESGGGLIQPGGSLRLSCAASGFTVSSNYMSWVRQAPGKGLEWVSVTYSGGSTSYADSVKGRFTISRDNSKNTLYLQMNSLRAEDTAVYYCARGGRYCSSISCYARSGCDYWGQGTLVTVSS
VL: AIQMTQSPSSLSASVGDRVTITCRASQSISNYLNWYQQKPGKAPKLLIYAASSLQSGVPSRFSGSGSGTDFTLTISSLQPEDFATYYCQQSYSSPSTTFGQGTKLEIK
- Inhibition of binding (%) [20]: 21.3%
- Inhibition of binding (%) [21]: 24.6%
- Inhibition of binding (%) [22]: 61.3%
- Inhibition of binding (%) [23]: 57.7%
- Inhibition of binding (%) [24]: 27.7%
- Inhibition of binding (%) [25]: 7.5%
- Inhibition of binding (%) [26]: 4.1%
- Inhibition of binding (%) [27]: 23.2%

Continued, values first:

- Inhibition of binding (%) [1]: 73.9%
- Inhibition of binding (%) [2]: 14.8%
- Inhibition of binding (%) [3]: 41.7%
Molecule: 9D33 IgG (antibody)

- Inhibition of binding (%) [4]: -3.9%
- Cyclic AMP produced; 5B3 10 µg/mL + TSH 3 ng/mL [5]: 85.9 pmol/mL
- Cyclic AMP produced; 5B3 100 µg/mL + TSH 3 ng/mL [5]: 83.7 pmol/mL
- % inhibition of TSH stimulation; 5B3 10 µg/mL [6]: 0%
- % inhibition of TSH stimulation; 5B3 100 µg/mL [6]: 7%
- Cyclic AMP produced; 5B3 10 µg/mL + TSH 3 ng/mL [6]: 94.2 pmol/mL
- Cyclic AMP produced; 5B3 100 µg/mL + TSH 3 ng/mL [6]: 86.8 pmol/mL
- Mutated/wild type (%) of cyclic AMP produced; 5B3 10 µg/mL + TSH 3 ng/mL [6]: 110%
- Mutated/wild type (%) of cyclic AMP produced; 5B3 100 µg/mL + TSH 3 ng/mL [6]: 104%
- Inhibition of binding (%) [7]: 6.3%
- Inhibition of binding (%) [8]: 1.3%
- Inhibition of binding (%) [9]: 0%
- % inhibition of TSH-biotin binding [10]: -4.8%
- Inhibition of binding (%) [11]: -1.5%
- Inhibition of binding (%) [12]: -0.7%
- % inhibition of TSH-biotin binding [13]: 8.3%
- Inhibition of binding (%) [14]: -0.1%
- Inhibition of binding (%) [15]: -3.5%
Molecule: 5B3 IgG (antibody)
